Test results: US20220144940A1 (VIELA BIO, published 2022)
Values joined by “and” are separate entries in the source; they are usually repeats but may differ in a detail not shown here. Identical values can stand only once.

Experiments:
[1] = molecular target: T1, HA-tagged human ILT7 on CT-550 cells (human, UniProt P59901 24-499); experiment: flow cytometry on CT-550 cells expressing human ILT7, anti-human IgG DyLight 649 detection; table 'Mean Ec50 (nM)', n = 2
T1 construct: whole, on cells; CT-550 cells: CT-125 cells (2B4 murine T-cell hybridoma with mouse FcεRIγ and NFAT-GFP reporter) transduced with HA-tagged human ILT7; also called human ILT7-expressing cells; not shown: HA tag
T1 sequence (P59901 24-499): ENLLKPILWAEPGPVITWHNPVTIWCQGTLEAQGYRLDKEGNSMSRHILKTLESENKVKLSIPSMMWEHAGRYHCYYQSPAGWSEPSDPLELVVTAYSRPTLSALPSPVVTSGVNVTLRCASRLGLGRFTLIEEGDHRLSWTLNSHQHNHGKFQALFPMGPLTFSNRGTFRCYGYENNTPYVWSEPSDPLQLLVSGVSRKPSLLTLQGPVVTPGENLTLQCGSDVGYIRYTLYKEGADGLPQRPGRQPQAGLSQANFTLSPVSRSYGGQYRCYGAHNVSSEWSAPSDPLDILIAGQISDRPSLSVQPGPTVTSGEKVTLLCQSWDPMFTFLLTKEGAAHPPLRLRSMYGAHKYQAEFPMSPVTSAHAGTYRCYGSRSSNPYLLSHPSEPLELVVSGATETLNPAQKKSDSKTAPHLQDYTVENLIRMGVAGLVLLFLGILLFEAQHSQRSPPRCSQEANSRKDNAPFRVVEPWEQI
Procedure: (§1) Binding of anti-ILT7 variants and isotype controls on human and cynomolgus ILT7 was assessed by flow cytometry analysis using CT-550 and cynoILT7 CT-125 cells respectively. CT-125 cells were used as control. Cells were resuspended in Blocking Buffer (PBS supplemented with 10% FBS) at a concentration of 5 million cells per mL and transferred into a round-bottom 96-well plates (BD Falcon™ Clear Microtest Plate, BD Biosciences) at 100 μL per well. Anti-ILT7 variants and control antibodies were added onto the cells for 30 min at 4° C. on a plate shaker. Cells were washed three times with PBS and resuspended in Blocking Buffer (100 μL/well). Human IgG binding on cell surface was detected using a secondary anti-human IgG antibody conjugated to DyLight 649 (1 in 1000 dilution). Cells were incubated in the dark for 30 min at 4° C. on a plate shaker. Cells were washed three times with PBS and surface fluorescence was acquired using LSRII Flow Cytometry System and FACSDiva Software (both from BD Biosciences).
(§2) In order to determine the binding EC50 of ILT70019, ILT70028, ILT70052, ILT70076, ILT70080, ILT70083, ILT70089, ILT70100, ILT70137, ILT70142 and ILT70144 on cells expressing human ILT7, the candidates were screened for binding on CT-550 cells by flow cytometry. ILT70080 (EC₅₀=0.28 nM), ILT70083 (EC₅₀=0.37 nM), ILT70137 (EC₅₀=0.41 nM), ILT70144, ILT70142, ILT70052, and ILT70100 bound to human ILT7-expressing cells. […] The anti-ILT7 antibodies 7C7 (7C7 is described above in Example 1) and SBI33 (SBI33 refers to the anti-ILT7 antibody ILT7#33 provided in U.S. Published Application No. 2009/0280128) were used as positive controls.

cynomolgus ILT7 [2] = molecular target: T2, cynomolgus ILT7 (cynomolgus, UniProt P59901 24-499 (human entry)); experiment: flow cytometry on CynoILT7 CT-125 cells
T2 construct: also called cyno ILT7; cynomolgus monkey ILT7
T2 sequence (P59901 other isoform, or with tags, fused parts or gaps limits assumed): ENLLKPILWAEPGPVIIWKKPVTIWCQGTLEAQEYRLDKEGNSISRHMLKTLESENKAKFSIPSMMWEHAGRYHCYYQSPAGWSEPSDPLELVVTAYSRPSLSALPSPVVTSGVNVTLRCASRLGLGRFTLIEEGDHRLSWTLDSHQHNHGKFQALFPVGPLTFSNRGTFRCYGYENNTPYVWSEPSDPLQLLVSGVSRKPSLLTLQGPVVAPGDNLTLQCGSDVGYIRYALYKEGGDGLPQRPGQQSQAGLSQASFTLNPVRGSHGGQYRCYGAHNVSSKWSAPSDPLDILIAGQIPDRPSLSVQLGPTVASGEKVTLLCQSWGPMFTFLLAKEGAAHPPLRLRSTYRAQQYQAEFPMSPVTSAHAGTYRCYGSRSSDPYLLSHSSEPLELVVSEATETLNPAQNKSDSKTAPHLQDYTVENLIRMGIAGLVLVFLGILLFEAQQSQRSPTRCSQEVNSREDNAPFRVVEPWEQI
Procedure: as §1
In order to determine the binding EC₅₀ of the variants on cells expressing cynomolgus ILT7, the antibodies were screened for binding on CynoILT7 CT-125 cells by flow cytometry. […] The graph in FIG. 3 represents the mean results from two independent experiments, and the table in FIG. 3 show the average EC₅₀.

cynomolgus ILT7 [3] = molecular target: T2, cynomolgus ILT7; experiment: cell-based or functional assay
[4] = molecular target: T1, HA-tagged human ILT7 on CT-550 cells; experiment: flow cytometry on human ILT7-expressing cells, left panel 'Human ILT7', table 'Ec50 (nM)'
Procedure: as §1

[5] = molecular target: T1, HA-tagged human ILT7 on CT-550 cells; experiment: flow cytometry (MFI) on human ILT7-expressing cells, left panel 'Human ILT7', table 'Ec50 (pM) Mean ± SD n=3'
cynomolgus ILT7 [6] = molecular target: T2, cynomolgus ILT7; experiment: flow cytometry (MFI) on cynomolgus ILT7-expressing cells, right panel 'Cynomolgus ILT7', table 'Ec50 (pM) Mean ± SD n=3'
cynomolgus ILT7 [7] = molecular target: T2, cynomolgus ILT7; experiment: flow cytometry on cynomolgus ILT7-expressing cells, bottom panel, table 'Ec50 (pM)'
Procedure: as §1

[8] = molecular target: T1, HA-tagged human ILT7 on CT-550 cells; experiment: flow cytometry on CT-550 cells
Procedure: as §1, §2

[9] = molecular target: T1, HA-tagged human ILT7 on CT-550 cells; experiment: cell-based or functional assay
[10] = molecular target: T1, HA-tagged human ILT7 on CT-550 cells; experiment: flow cytometry on CT-550 cells (human ILT7), top panel, table 'Ec50 (pM)'
Procedure: as §1

cynomolgus ILT7 [11] = molecular target: T2, cynomolgus ILT7; experiment: flow cytometry on CynoILT7 CT-125 cells (cynomolgus ILT7), bottom panel, table 'Ec50 (pM)'
Procedure: as §1

Row | EC50 [1] | EC50 (cynomolgus ILT7 [2]) | ADCC EC50 (cynomolgus ILT7 [3]) | EC50 [4] | EC50 [5] | EC50 (cynomolgus ILT7 [6]) | EC50 (cynomolgus ILT7 [7]) | EC50 [8] | ADCC EC50 [9] | EC50 [10] | EC50 (cynomolgus ILT7 [11]) | Binder
1 | 23100 pM | 350 pM | 73 pM |  |  |  |  |  |  |  |  | ILT70052 (antibody, V domains shown) VH: EVQLVESGGGLVKPGGSLRLSCEASGFTFTDYYMNWIRQAPGKGLEWISYISPGGTTVYYADSVKGRFTISRDNAKNSLYLQMNSLRVEDTAVYYCARDISGYGDWFDPWGKGTLVTVSS VL: QSVVTQPPSASGTPGQRVTISCSGSSSNIGSNTVNWYQLLPATAPRILIYNNNQRPSGVPDRFAGSKSGTSASLAISGLQSEDEADYYCGAWDDSLNSPVFGGGTKLTVL
2 |  | 1370 pM | 433 pM and 360 pM | 250 pM | 308 pM | 1280 pM | 2650 pM | 370 pM and 464 pM | 89 pM and 94 pM |  |  | ILT70083 (antibody, V domains shown) VH: EVQLLESGGGLVQPGGSLRLSCAASGFTFSSYAMSWVRQAPGKGLEWVSAISGSGGSTYYADSVKGWFTISRDNSKNTLYLQMNSLRAEDTAVYYCARRTYYYDSDGHSDVFDIWGRGTLVTVSS VL: QSVVTQPPSVSAAPGQKVTISCSGSASNIGSNFVSWYQQLPGRAPKLLIYDNDKRDLGIPDRFSASISSTSAALAITGLQTEDEADYYCGTWDTSLTVGVFGGGTKLTVL
3 |  |  | 57 pM | 380 pM | 211 pM | 863 pM |  |  | 10.5 pM |  |  | afucosylated ILT70083 (antibody, V domains shown, afucosylated: lacks the α-1,6 fucose moiety on the N-glycan at Asn-297 of the heavy chain) VH: EVQLLESGGGLVQPGGSLRLSCAASGFTFSSYAMSWVRQAPGKGLEWVSAISGSGGSTYYADSVKGWFTISRDNSKNTLYLQMNSLRAEDTAVYYCARRTYYYDSDGHSDVFDIWGRGTLVTVSS VL: QSVVTQPPSVSAAPGQKVTISCSGSASNIGSNFVSWYQQLPGRAPKLLIYDNDKRDLGIPDRFSASISSTSAALAITGLQTEDEADYYCGTWDTSLTVGVFGGGTKLTVL
4 |  | 1400 pM | 15 pM |  |  |  |  | 410 pM | 44 pM |  |  | ILT70137 (antibody, V domains shown) VH: QVQLQQSGAEVKKPGASVKVSCKASGYTFTSYGISWVRQAPGQGLEWMGWISAYNGNTNYAQKLQGRVTMTTDTSTSTAYMELRSLRSDDTAVYYCARNGLWGWDSDAFDIWGRGTLVTVSS VL: QSALTQPASVSGSPGQSITISCTGTSSDVGGYNYVSWYQQHPGKAPKLMIYDVSNRPSGVSNRFSGSKSGNTASLTISGLQAEDEADYYCSSYTSSSTVVFGGGTKVTVL
5 | 1700 pM | 7810 pM |  |  |  |  |  |  |  |  |  | ILT70144 (antibody, V domains shown) VH: QVQLVQSGAEVKKPGASVKVSCKASGYTFTSYGISWVRQAPGQGLEWMGWISAYNGNTNYAQKLQGRVTMTRDTSISTAYMELSRLRSDDTAVYYCARNGLWGWDSDAFDIWGQGTTVTVSS VL: QSVLTQPPSVSAAPGQKVTISCSGSSSNIGNNYVSWYQQLPGTAPKLLIYDNNKRPSGIPDRFSGSKSGTSATLGITGLQTGDEADYYCGTWDSSLSAGVFGTGTQLTVL
6 |  |  |  |  | 155 pM | 370 pM |  |  | < 14.1 pM and 6.9 pM | 287 pM | 428 pM | ILT70080.6 (antibody, V domains shown, Engineered (germlined) variant of ILT70080, tested as IgG1) VH: QVQLVQSGAEVKKPGSSVKVSCKASGDSFRNYAVSWVRQAPGQGLEWMGAMMPSFGTREHSQQFQGRVTLTADESTSTAYMELSSLRSEDTAVYYCAGSRDYNAYHFWTGPPDFWGRGTLVTVSS VL: SYVLTQPPSVSVAPGKTARITCGGDSVGSTSVHWYQQKPGQAPVLVIYYNSDRPSGIPERFSGSNSGNTATLTISRVEAGDEADYYCQVWDTSSDHPEFGGGTKLTVL
7 | 180000 pM | 1630 pM | 188 pM |  |  |  |  |  |  |  |  | ILT70100 (antibody, V domains shown) VH: not shown VL: DIQLTQSPSSLSASVGERVTITCQASQDIRSYLNWYQQKPGKAPKLLIYDVSNLETGVPSRFSGSGSGTEYTFSISSLQPEDFATYYCQQYDKAPLTFGGGTKVEIK
